The results in this text go back to the supplement of paper PMC10567573.

B1: SNAP91 (parent)
chain: FSTDAFSSPPQGASPVPESSLTAD
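Note: lentivirally expressed fusions sorted by FACS into six bins by GFP to DsRed ratio, PSI derived from sequencing read proportions per bin multiplied by bin number.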

The data set covers variants of B1. The data set can be described thus: protein stability index of a GFP-peptide fusion (GPS, HEK-293T) (PSI 1-6); higher = more stable. To be noted: c terminus: a fixed tail appended.
Turning to FSTDKFSSPPQGASPVPESSLTAD [A5K], the protein stability index was determined as 4.71.
On to FSTDTFSSPPQGASPVPESSLTAD [A5T], for which the protein stability index was found to be 4.96.
Regarding FSTDVFSSPPQGASPVPESSLTAD [A5V], the protein stability index came to 4.18.
As to FSTDDFSSPPQGASPVPESSLTAD [A5D], the protein stability index worked out at 5.61.
With FSTDGFSSPPQGASPVPESSLTAD [A5G], the protein stability index was 4.76.
Turning to FSTDIFSSPPQGASPVPESSLTAD [A5I], the protein stability index amounted to 3.79.
For the variant FSTDRFSSPPQGASPVPESSLTAD [A5R], the protein stability index stood at 4.71.
In the case of FSTDFFSSPPQGASPVPESSLTAD [A5F], the protein stability index worked out at 2.03.
Consider FSTDYFSSPPQGASPVPESSLTAD [A5Y], for which the protein stability index was 2.33.
In the case of FSTDMFSSPPQGASPVPESSLTAD [A5M], the protein stability index amounted to 4.56.
Turning to FSTDQFSSPPQGASPVPESSLTAD [A5Q], the protein stability index turned out to be 4.88.
In the case of FSTDPFSSPPQGASPVPESSLTAD [A5P] it was 4.94.
Consider FSTDEFSSPPQGASPVPESSLTAD [A5E], for which the protein stability index came to 4.8.
In the case of FSTDSFSSPPQGASPVPESSLTAD [A5S] it was 4.68.
For the variant FSTDNFSSPPQGASPVPESSLTAD [A5N], the protein stability index was 5.16.
Turning to FSTDLFSSPPQGASPVPESSLTAD [A5L], the protein stability index was found to be 3.55.
With FSTDHFSSPPQGASPVPESSLTAD [A5H], the protein stability index turned out to be 4.59.
To FSTDWFSSPPQGASPVPESSLTAD [A5W] belongs 1.92; to FSTDCFSSPPQGASPVPESSLTAD [A5C], 4.07; to GSTDAFSSPPQGASPVPESSLTAD [F1G], 5.54.
Take ESTDAFSSPPQGASPVPESSLTAD [F1E]: the protein stability index was 5.47.
As for NSTDAFSSPPQGASPVPESSLTAD [F1N], the protein stability index came out at 5.74.
Regarding CSTDAFSSPPQGASPVPESSLTAD [F1C], the protein stability index amounted to 5.07.
Regarding ASTDAFSSPPQGASPVPESSLTAD [F1A], the protein stability index came to 5.73.
Turning to WSTDAFSSPPQGASPVPESSLTAD [F1W], the protein stability index came to 5.19.
In the case of SSTDAFSSPPQGASPVPESSLTAD [F1S], the protein stability index amounted to 5.65.
In the case of LSTDAFSSPPQGASPVPESSLTAD [F1L], the protein stability index stood at 5.57.
Regarding TSTDAFSSPPQGASPVPESSLTAD [F1T], the protein stability index was determined as 5.55.
On to HSTDAFSSPPQGASPVPESSLTAD [F1H], for which the protein stability index came out at 5.37.
Regarding MSTDAFSSPPQGASPVPESSLTAD [F1M], the protein stability index stood at 5.44.
Consider RSTDAFSSPPQGASPVPESSLTAD [F1R], for which the protein stability index stood at 5.39.
YSTDAFSSPPQGASPVPESSLTAD [F1Y]: the protein stability index was 3.31.
In the case of QSTDAFSSPPQGASPVPESSLTAD [F1Q] it was 5.64; in that of ISTDAFSSPPQGASPVPESSLTAD [F1I], 5.36.
To KSTDAFSSPPQGASPVPESSLTAD [F1K] belongs 5.34; to DSTDAFSSPPQGASPVPESSLTAD [F1D], 5.72; to VSTDAFSSPPQGASPVPESSLTAD [F1V], 5.52.
On to PSTDAFSSPPQGASPVPESSLTAD [F1P], for which the protein stability index was 5.68.
Regarding FSSDAFSSPPQGASPVPESSLTAD [T3S], the protein stability index turned out to be 2.95.
Consider FSPDAFSSPPQGASPVPESSLTAD [T3P], for which the protein stability index stood at 4.49.
As to FSKDAFSSPPQGASPVPESSLTAD [T3K], the protein stability index is 4.93.
Take FSEDAFSSPPQGASPVPESSLTAD [T3E]: the protein stability index was 5.08.
Turning to FSADAFSSPPQGASPVPESSLTAD [T3A], the protein stability index was 5.12.
With FSWDAFSSPPQGASPVPESSLTAD [T3W], the protein stability index came to 4.38.
In the case of FSHDAFSSPPQGASPVPESSLTAD [T3H] it was 5.4; in that of FSNDAFSSPPQGASPVPESSLTAD [T3N], 4.84; in that of FSLDAFSSPPQGASPVPESSLTAD [T3L], 4.93.
As for FSGDAFSSPPQGASPVPESSLTAD [T3G], the protein stability index turned out to be 4.47.
With FSQDAFSSPPQGASPVPESSLTAD [T3Q], the protein stability index amounted to 5.5.
FSDDAFSSPPQGASPVPESSLTAD [T3D]: the protein stability index stood at 5.08.
In the case of FSYDAFSSPPQGASPVPESSLTAD [T3Y] it was 4.46.
Take FSIDAFSSPPQGASPVPESSLTAD [T3I]: the protein stability index was determined as 4.4.
As to FSCDAFSSPPQGASPVPESSLTAD [T3C], the protein stability index was 4.3.
Consider FSMDAFSSPPQGASPVPESSLTAD [T3M], for which the protein stability index came out at 3.37.
Take FSVDAFSSPPQGASPVPESSLTAD [T3V]: the protein stability index worked out at 4.56.
As for FSFDAFSSPPQGASPVPESSLTAD [T3F], the protein stability index came out at 4.6.
With FSRDAFSSPPQGASPVPESSLTAD [T3R], the protein stability index was 4.91.
On to FSTDAESSPPQGASPVPESSLTAD [F6E], for which the protein stability index amounted to 5.69.
On to FSTDAHSSPPQGASPVPESSLTAD [F6H], for which the protein stability index is 5.62.
In the case of FSTDAWSSPPQGASPVPESSLTAD [F6W], the protein stability index stood at 1.86.
Regarding FSTDAYSSPPQGASPVPESSLTAD [F6Y], the protein stability index is 3.26.
As for FSTDAQSSPPQGASPVPESSLTAD [F6Q], the protein stability index turned out to be 5.63.
For the variant FSTDASSSPPQGASPVPESSLTAD [F6S], the protein stability index turned out to be 5.44.
For the variant FSTDARSSPPQGASPVPESSLTAD [F6R], the protein stability index was found to be 5.49.
To FSTDANSSPPQGASPVPESSLTAD [F6N] belongs 5.31; to FSTDALSSPPQGASPVPESSLTAD [F6L], 5.55.
As for FSTDAGSSPPQGASPVPESSLTAD [F6G], the protein stability index was found to be 5.48.
Regarding FSTDAPSSPPQGASPVPESSLTAD [F6P], the protein stability index was determined as 5.53.
For the variant FSTDATSSPPQGASPVPESSLTAD [F6T], the protein stability index came to 5.61.
In the case of FSTDADSSPPQGASPVPESSLTAD [F6D] it was 5.44.
On to FSTDAMSSPPQGASPVPESSLTAD [F6M], for which the protein stability index came out at 5.53.
For FSTDAISSPPQGASPVPESSLTAD [F6I], the protein stability index was 5.43.
As for FSTDAASSPPQGASPVPESSLTAD [F6A], the protein stability index stood at 5.57.
On to FSTDAVSSPPQGASPVPESSLTAD [F6V], for which the protein stability index came out at 5.59.
FSTDAKSSPPQGASPVPESSLTAD [F6K]: the protein stability index was determined as 5.38.
As for FSTDACSSPPQGASPVPESSLTAD [F6C], the protein stability index is 5.09.
As for FGTDAFSSPPQGASPVPESSLTAD [S2G], the protein stability index came to 2.8.
Consider FYTDAFSSPPQGASPVPESSLTAD [S2Y], for which the protein stability index is 4.7.
With FCTDAFSSPPQGASPVPESSLTAD [S2C], the protein stability index worked out at 2.46.
To FLTDAFSSPPQGASPVPESSLTAD [S2L] belongs 3.34; to FDTDAFSSPPQGASPVPESSLTAD [S2D], 5.7; to FETDAFSSPPQGASPVPESSLTAD [S2E], 5.52.
As to FHTDAFSSPPQGASPVPESSLTAD [S2H], the protein stability index was 2.15.
Take FITDAFSSPPQGASPVPESSLTAD [S2I]: the protein stability index was determined as 1.64.
In the case of FRTDAFSSPPQGASPVPESSLTAD [S2R], the protein stability index stood at 5.05.
FMTDAFSSPPQGASPVPESSLTAD [S2M]: the protein stability index was determined as 3.32.
With FKTDAFSSPPQGASPVPESSLTAD [S2K], the protein stability index came out at 5.08.
FTTDAFSSPPQGASPVPESSLTAD [S2T]: the protein stability index is 1.67.
Consider FPTDAFSSPPQGASPVPESSLTAD [S2P], for which the protein stability index amounted to 3.
On to FATDAFSSPPQGASPVPESSLTAD [S2A], for which the protein stability index stood at 2.09.
Regarding FVTDAFSSPPQGASPVPESSLTAD [S2V], the protein stability index turned out to be 3.15.
For FWTDAFSSPPQGASPVPESSLTAD [S2W], the protein stability index came out at 3.48.
FNTDAFSSPPQGASPVPESSLTAD [S2N]: the protein stability index is 5.09.
For the variant FFTDAFSSPPQGASPVPESSLTAD [S2F], the protein stability index came to 3.96.
